Measurements reported in patent publication US7407934.
Positions of bridges follow the written chain, without caps; N, C: chain ends. No end group written: not given here.

B1: des-1Lys18Arg25,28Pro-h-Amylin (peptide)
peptide: CNTATCATQRLANFLVRSSNNFGPILPSTNVGSNTY
modifications: 2,7-disulfide; made on methylbenzhydrylamine resin (C-terminal amide not printed in so many words)
B2: des-1Lys25,28,29Pro-h-Amylin (peptide)
peptide: CNTATCATQRLANFLVHSSNNFGPILPPTNVGSNTY
modifications: 2,7-disulfide; made on methylbenzhydrylamine resin (C-terminal amide not printed in so many words)
B3: des-1Lys18Arg25,28,29Pro-h-Amylin (peptide)
peptide: CNTATCATQRLANFLVRSSNNFGPILPPTNVGSNTY
modifications: 2,7-disulfide; made on methylbenzhydrylamine resin (C-terminal amide not printed in so many words)
B4: 25Pro26Val28,29Pro-h-Amylin (peptide)
peptide: KCNTATCATQRLANFLVHSSNNFGPVLPPTNVGSNTY
modifications: 2,7-disulfide; made on methylbenzhydrylamine resin (C-terminal amide not printed in so many words)
B5: 18Arg25,28Pro-h-Amylin (peptide)
peptide: KCNTATCATQRLANFLVRSSNNFGPILPSTNVGSNTY
modifications: 2,7-disulfide; made on methylbenzhydrylamine resin (C-terminal amide not printed in so many words)
B6: 18Arg25,28,29Pro-h-Amylin (peptide)
peptide: KCNTATCATQRLANFLVRSSNNFGPILPPTNVGSNTY
modifications: 2,7-disulfide; made on methylbenzhydrylamine resin (C-terminal amide not printed in so many words)

Target: amylin receptor (rat basal forebrain membranes containing the nucleus accumbens and surrounding regions) (rat)
Experiment: competition with 125I-Bolton-Hunter rat amylin on rat basal forebrain membranes, filtration

CNTATCATQRLANFLVHSSNNFGPILPSTNVGSNTY (peptide, from a related filing) [des-1Lys25,28Pro-h-Amylin] and B1 are within 1.5-fold of each other in IC50: 0.085 nM for the first, 0.082 nM for the second.

Compared with B2, B3 is 1.5-fold higher in IC50: 0.014 nM for the first, 0.021 nM for the second. The first is the more potent here.

KCNTATCATQRLANFLVHSSNNFGPILPSTNVGSNTY (peptide, from a related filing) [25,28Pro-h-Amylin] and B4 are within 1.5-fold of each other in IC50: 0.026 nM for the first, 0.018 nM for the second.

Compared with KDNTATKATQRLANFLVHSSNNFGAILSSTNVGSNTY (peptide, from a related filing, lactam 2-7; ends not checked) [2,7Cyclo-[2Asp,7Lys]-h-Amylin], B5 is 9.7-fold lower in IC50: 0.31 nM for the first, 0.032 nM for the second.

B6 showed an IC50 of 0.021 nM.
